In the Human Domainome abundance scans (Beltran et al. 2025) one finds abundance fitness data, which are given here for 57 variants.

± gives the uncertainty stated by the source.

To fix the notation:
B1: Probable E3 ubiquitin-protein ligase MID2, residues 191 to 235; numbered along this chain, Q9UJV3 (parent)
chain: RGITCLDHENEKVNMYCVSDDQLICALCKLVGRHRDHQVASLNDR

Variants of B1 are the subject of this series. In words: abundance fitness (aPCA) (normalised: wild type 0, dead -1); higher = more abundant; growth selection in yeast, the domain comes from the species named. The settings on record: Homo sapiens.
For the variant RGITCLDHENEKVNMYCVSDDQLICALCKLVGRHRDHQCASLNDR [V39C], the abundance fitness is -0.014 ± 0.1.
The result for RGITCLDHENEKVNMYCVSDDQLICALCKLVGRHRDHQGASLNDR [V39G] reads -0.191 ± 0.054; that for RGITCLDHENEKVNMYCVSDDQLICALCKLVGRHRDHQPASLNDR [V39P], -0.249 ± 0.13; that for RGITCLDHENEKVNMYCVSDDQLICALCKLVGRHRDHQSASLNDR [V39S], 0.082 ± 0.11.
The result for RGITCLDHENEKVNMYCVSDDQLICALCKLVGRHRDHQIASLNDR [V39I] reads -0.153 ± 0.095; that for RGITCLDHENEKVNMYCVSDDQLICALCKLVGRHRDHQTASLNDR [V39T], 0.06 ± 0.063.
With RGITCLDHENEKVNMYCVSDDQLICALCKLVGRHRDHQWASLNDR [V39W], the abundance fitness is -0.23 ± 0.076.
The result for RGITCLDHENEKVNMYCVSDDQLICALCKLVGRHRDHQLASLNDR [V39L] reads -0.079 ± 0.062; that for RGITCLDHENEKVNMYCVSDDQLICALCKLVGRHRDHQKASLNDR [V39K], -0.449 ± 0.17.
As to RGITCLDHENEKVNMYCVSDDQLICALCKLVGRHRDHQYASLNDR [V39Y], the abundance fitness is -0.335 ± 0.2.
As for RGITCLDHENEKVNMYCVSDDQLICALCKLVGRHRDHQEASLNDR [V39E], the figure is -0.143 ± 0.068.
In the case of RGITCLDHENEKVNMYCVSDDQLICALCKLVGRHRDHQDASLNDR [V39D], the abundance fitness is -0.258 ± 0.071.
As for RGITCLDHENEKVNMYCVSDDQLICALCKLVGRHRDHQMASLNDR [V39M], the figure is -0.129 ± 0.095; as for RGITCLDHENEKVNMYCVSDDQLICALCKLVGRHRDHQHASLNDR [V39H], 0.067 ± 0.15.
The result for RGITCLDHENEKVNMYCVSDDQLICALCKLVGRHRDHQRASLNDR [V39R] reads -0.319 ± 0.055; that for RGITCLDHENEKVNMYCVSDDQLICALCKLVGRHRDHQQASLNDR [V39Q], -0.081 ± 0.086; that for RGITCLDHENEKVNMYCVSDDQLICALCKLVGRHRDHQVAVLNDR [S41V], -0.298 ± 0.061.
On to RGITCLDHENEKVNMYCVSDDQLICALCKLVGRHRDHQVAHLNDR [S41H], for which the abundance fitness was -0.135 ± 0.14.
The result for RGITCLDHENEKVNMYCVSDDQLICALCKLVGRHRDHQVAWLNDR [S41W] reads -0.458 ± 0.1; that for RGITCLDHENEKVNMYCVSDDQLICALCKLVGRHRDHQVANLNDR [S41N], 0.1 ± 0.35.
Turning to RGITCLDHENEKVNMYCVSDDQLICALCKLVGRHRDHQVATLNDR [S41T], the abundance fitness was -0.001 ± 0.062.
For the variant RGITCLDHENEKVNMYCVSDDQLICALCKLVGRHRDHQVALLNDR [S41L], the abundance fitness was -0.157 ± 0.068.
As for RGITCLDHENEKVNMYCVSDDQLICALCKLVGRHRDHQVAYLNDR [S41Y], the figure is -0.502 ± 0.45.
As for RGITCLDHENEKVNMYCVSDDQLICALCKLVGRHRDHQVARLNDR [S41R], the figure is -0.039 ± 0.053; as for RGITCLDHENEKVNMYCVSDDQLICALCKLVGRHRDHQVACLNDR [S41C], -0.071 ± 0.085; as for RGITCLDHENEKVNMYCVSDDQLICALCKLVGRHRDHQVAALNDR [S41A], -0.08 ± 0.063.
As for RGITCLDHENEKVNMYCVSDDQLICALCKLVGRHRDHQVAKLNDR [S41K], the figure is -0.102 ± 0.074; as for RGITCLDHENEKVNMYCVSDDQLICALCKLVGRHRDHQVAGLNDR [S41G], -0.021 ± 0.055.
On to RGITCLDHENEKVNMYCVSDDQLICALCKLVGRHRDHQVAPLNDR [S41P], for which the abundance fitness amounted to 0.061 ± 0.087.
As for RGITCLDHENEKVNMYCVSDDQLICALCKLVGRHRDHQVADLNDR [S41D], the figure is 0.087 ± 0.074; as for RGITCLDHENEKVNMYCVSDDQLICALCKLVGRHRDHQVAFLNDR [S41F], -0.385 ± 0.14.
As for RGITCLDHENEKVNMYCVSDDQLICALCKLVGRHRDHQVAILNDR [S41I], the figure is -0.481 ± 0.16; as for RGITCLDHENEKVNMYCVSDDQLICALCKLVGRHRDHQVAMLNDR [S41M], -0.222 ± 0.12; as for RGITCLDHENEKVNMYCVSDDQLICALCKLVGRHRDMQVASLNDR [H37M], -0.684 ± 0.1.
The result for RGITCLDHENEKVNMYCVSDDQLICALCKLVGRHRDQQVASLNDR [H37Q] reads -0.365 ± 0.093; that for RGITCLDHENEKVNMYCVSDDQLICALCKLVGRHRDKQVASLNDR [H37K], 0.271 ± 0.068.
Turning to RGITCLDHENEKVNMYCVSDDQLICALCKLVGRHRDDQVASLNDR [H37D], the abundance fitness is -0.274 ± 0.09.
On to RGITCLDHENEKVNMYCVSDDQLICALCKLVGRHRDLQVASLNDR [H37L], for which the abundance fitness was -0.584 ± 0.11.
The result for RGITCLDHENEKVNMYCVSDDQLICALCKLVGRHRDIQVASLNDR [H37I] reads -1.04 ± 0.31; that for RGITCLDHENEKVNMYCVSDDQLICALCKLVGRHRDAQVASLNDR [H37A], -0.313 ± 0.065.
For RGITCLDHENEKVNMYCVSDDQLICALCKLVGRHRDRQVASLNDR [H37R], the abundance fitness was -0.492 ± 0.061.
Consider RGITCLDHENEKVNMYCVSDDQLICALCKLVGRHRDSQVASLNDR [H37S], for which the abundance fitness is -0.482 ± 0.091.
As for RGITCLDHENEKVNMYCVSDDQLICALCKLVGRHRDTQVASLNDR [H37T], the figure is -0.295 ± 0.065; as for RGITCLDHENEKVNMYCVSDDQLICALCKLVGRHRDGQVASLNDR [H37G], -0.283 ± 0.056; as for RGITCLDHENEKVNMYCVSDDQLICALCKLVGRHRDYQVASLNDR [H37Y], -0.519 ± 0.12.
As for RGITCLDHENEKVNMYCVSDDQLICALCKLVGRHRDHQVASLNAR [D44A], the figure is -0.152 ± 0.062; as for RGITCLDHENEKVNMYCVSDDQLICALCKLVGRHRDHQVASLNCR [D44C], -0.452 ± 0.17; as for RGITCLDHENEKVNMYCVSDDQLICALCKLVGRHRDHQVASGNDR [L42G], -0.071 ± 0.055.
As for RGITCLDHENEKVNMYCVSDDQLICALCKLVGRHRDHQVASSNDR [L42S], the figure is 0.046 ± 0.06; as for RGITCLDHENEKVNMYCVSDDQLICALCKLVGRHRDHQVASANDR [L42A], 0.118 ± 0.056; as for RGITCLDHENEKVNMYCVSDDQLICALCKLVGRHRDHQVASVNDR [L42V], -0.016 ± 0.052.
For the variant RGITCLDHENEKVNMYCVSDDQLICALCKLVGRHRDHQVASQNDR [L42Q], the abundance fitness was -0.134 ± 0.078.
As for RGITCLDHENEKVNMYCVSDDQLICALCKLVGRHRDHQVASRNDR [L42R], the figure is -0.095 ± 0.06; as for RGITCLDHENEKVNMYCVSDDQLICALCKLVGRHRDHQVASENDR [L42E], 0.091 ± 0.14; as for RGITCLDHENEKVNMYCVSDDQLICALCKLVGRHRDHQVASKNDR [L42K], -0.054 ± 0.073.
Regarding RGITCLDHENEKVNMYCVSDDQLICALCKLVGRHRDHQVASNNDR [L42N], the abundance fitness was found to be 0.045 ± 0.13.
As to RGITCLDHENEKVNMYCVSDDQLICALCKLVGRHRDHQVASTNDR [L42T], the abundance fitness is -0.096 ± 0.086.
